Where two headings read alike, the source gives them in different places.
Columns and labels:
[1] = molecular target: T1, R.NgoAVII-B3 (C-terminal B3-like DNA-binding domain) (UniProt Q5F9M9 179-345); assay: X-ray crystallography
T1 sequence: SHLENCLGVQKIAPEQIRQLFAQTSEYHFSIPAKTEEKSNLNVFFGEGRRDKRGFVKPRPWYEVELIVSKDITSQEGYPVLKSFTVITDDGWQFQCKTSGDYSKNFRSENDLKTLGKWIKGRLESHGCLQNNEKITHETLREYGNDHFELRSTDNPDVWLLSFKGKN

[2] = molecular target: T1, R.NgoAVII-B3 (C-terminal B3-like …); assay: X-ray crystallography; remark: listed apart in the source

B1: DNA-2 oligoduplex (DNA-1 without terminal C1 and G32) (dsDNA)
DNA 1: GGGATTGCCGCTTAG
DNA 2: CCTAAGCGGCAATCC
Does B1 bind [1]?
Result: binds

B2: DNA-1 cognate oligoduplex (dsDNA)
DNA 1: GGGATTGCCGCTTAGG
DNA 2: CCCTAAGCGGCAATCC
Does B2 bind [2]?
Result: binds

Reference: article PMC4267654
